Here are results for 27 sequences from the supplement of paper PMC10201428.

± gives the standard deviation of the averaged measurements.

Series [1] has as its system VchCAST RNA-guided transposition machinery (E. coli BL21(DE3) host, lacZ target). The series is described as follows: relative integration efficiency (T-RL orientation) vs wild-type transposon end (log2 (normalized fold change)); transposon end mutated: left end; higher = more efficient transposition. The method in brief: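 Each barcoded pool, 1549 left-end or 1849 right-end transposon variants in a pUC57 mini-transposon donor, went into E. coli BL21(DE3) with a T7-driven effector plasmid (CRISPR array, tniQ-cas8-cas7-cas6, tnsA-tnsB-tnsC). Plates contained 0.1 mM IPTG and were held at 37°C for 18 h. Input plasmids and genomic integration junctions were PCR-amplified and read by Illumina sequencing, with two biological output replicates and four reference barcodes. Relative integration efficiency is the fold change of output over input barcode abundance, normalised to the reference barcodes and log-transformed.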

Series [2] shares this test system. Description: relative integration efficiency (T-LR orientation) vs wild-type transposon end (log2 (normalized fold change)); transposon end mutated: left end; higher = more efficient transposition. Here is the method: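 Pooled, barcoded VchCAST (Tn6677) mini-transposon donor libraries; each variable transposon-end sequence sits in a fixed pDonor mini-transposon context (10-bp barcode and cargo not included). Left- or right-end libraries were co-transformed with pEffector (TniQ-Cascade, TnsABC, lacZ crRNA, T7, 0.1 mM IPTG) into E. coli BL21(DE3) and grown 18 h at 37 C. T-LR and T-RL junction amplicons were sequenced; output/input barcode fold change was normalised to the mean of four wild-type barcodes and log2-transformed. Two biological replicates; zero-count/undetected variants carry floor values (-10 / -15), censored here. Barcode uncoupling by PCR recombination adds noise.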

Consider “AATGTTGTTGATGCAACCATAAAGTGATATTTAATAACTTCGTATAAGGTATACTATACGAAGTTATCAACCATATATTGATATCTCACAAAACAACCATAAGTTGATATTTTTGTGAATCGAGTATTTCAGCAAAACTACTGCAGTAAGAA”, for which the “relative integration efficiency (log2)” value in series [1] was -3.34 ± 1.1; in series [2], -3.52 ± 1.1.

Consider “AATGTTGTTGATGCAACCATAAAGTGATATTTAATAACTTCGTATAATGTATACTATACGAAGTTATCAACCATATATTGATATCTCACAAAACAACCATAAGTTGATATTTTTGTGAATCGAGTATTTCAGCAAAACTACTGCAGTAAGAA”, for which the “relative integration efficiency (log2)” value in series [1] is -3.05 ± 1.2; in series [2] it was -2.57 ± 2.1.

Turning to “AATGTTGTTGATGCAACCATAAAGTGATATTTAATAACTTCGTATAATGTATCGTATACGAACGGTACAACCATATATTGATATCTCACAAAACAACCATAAGTTGATATTTTTGTGAATCGAGTATTTCAGCAAAACTACTGCAGTAAGAA”, the “relative integration efficiency (log2)” value in series [1] was -3.32 ± 0.82; in series [2], -4.18 ± 0.64.

For the sequence “AATGTTGTTGATGCAACCATAAAGTGATATTTAATAACTTCGTATAATGTATGCTATACGAAGTTATCAACCATATATTGATATCTCACAAAACAACCATAAGTTGATATTTTTGTGAATCGAGTATTTCAGCAAAACTACTGCAGTAAGAA”, the “relative integration efficiency (log2)” value in series [1] was -2.95 ± 1.1; in series [2] it was -3.76 ± 2.9.

Regarding “AATGTTGTTGATGCAACCATAAAGTGATATTTAATAACTTCGTATAGGATACTTTATACGAAGTTATCAACCATATATTGATATCTCACAAAACAACCATAAGTTGATATTTTTGTGAATCGAGTATTTCAGCAAAACTACTGCAGTAAGAA”, the “relative integration efficiency (log2)” value is -3.72 ± 1.3 in series [1] and -3.99 ± 1.5 in series [2].

As for “AATGTTGTTGATGCAACCATAAAGTGATATTTAATAACTTCGTATAGTATACATTATACGAAGTTATCAACCATATATTGATATCTCACAAAACAACCATAAGTTGATATTTTTGTGAATCGAGTATTTCAGCAAAACTACTGCAGTAAGAA”, the figures for the “relative integration efficiency (log2)” value in series [1] and in series [2] were -2.92 ± 1 and -4.118 ± 0.013, respectively.

As to “AATGTTGTTGATGCAACCATAAAGTGATATTTAATAACTTGGTATAGCATACATTATACGAACGGTACAACCATATATTGATATCTCACAAAACAACCATAAGTTGATATTTTTGTGAATCGAGTATTTCAGCAAAACTACTGCAGTAAGAA”, the “relative integration efficiency (log2)” value in series [1] was -3.71 ± 1.4; in series [2], -4.2 ± 0.86.

Turning to “AATGTTGTTGATGCAACCATAAAGTGATATTTAATAAGGCGGGCGCCGACTACCAGGCCAACACCCCACCAACGCGCGGTCGCGAGACACCCCACCAACGCCTGGTCGCGGGGGTGTCCGATCTGATTTCAGCAAAACTACTGCAGTAAGAA”, the “relative integration efficiency (log2)” value is -7.05 ± 1.6 in series [1] and -3.73 ± 1.5 in series [2].

Regarding “AATGTTGTTGATGCAACCATAAAGTGATATTTAATAATCAACCATAAAGTGATATTTAACTTAACCACAACCATATATTGATATCTCACAAAACAACCATAAGTTGATATTTTTGTGAATCGAGTATTTCAGCAAAACTACTGCAGTAAGAA”, the “relative integration efficiency (log2)” value in series [1] was -2.68 ± 0.72; in series [2], -4.25 ± 0.83.

As to “AATGTTGTTGATGCAACCATAAAGTGATATTTAATAATCAACCATATATTGATATCTCACAAAACAACCATAAGTTGATATTTTTGTGAATCGAGTATTTCAGCAAAACTACTGCAGTAAGAAAGTTACTTCGTGGTATGGGAGGATCAAGG”, the “relative integration efficiency (log2)” value in series [1] was -7.79 ± 2.1; in series [2], under -10.

Turning to “AATGTTGTTGATGCAACCATAAAGTGATATTTAATAATCAACCATATATTGATATCTCTATTTATAATCAGCAACTTAACCACAAAAACAAAACAACCATAAGTTGATATTTTTGTGAATCGAGTATTTCAGCAAAACTACTGCAGTAAGAA”, the entries for the “relative integration efficiency (log2)” value in series [1] and in series [2] were -2.9 ± 1.1 and -0.761 ± 1, respectively.

“AATGTTGTTGATGCAACCATAAAGTGATATTTAATAATCAACTGTATATAAATACAGTTCCACAAAACAACCATATATTGATATCTCACAAAACAACCATAAGTTGATATTTTTGTGAATCGAGTATTTCAGCAAAACTACTGCAGTAAGAA”: the results for the “relative integration efficiency (log2)” value in series [1] and in series [2] were -4.85 ± 1.1 and -5.77 ± 0.6, respectively.

As to “AATGTTGTTGATGCAACCATAAAGTGATATTTAATAATGCGGGCGCCGACTACCAGGCCAACACCCCACCAACGCGCGGTCGCGAGACACCCCACCAACGCCTGGTCGCGGGGGTGTCCGATCTGATTTCAGCAAAACTACTGCAGTAAGAA”, the “relative integration efficiency (log2)” value in series [1] is -7.04 ± 1.2; in series [2] it was -5.9 ± 3.3.

Turning to “AATGTTGTTGATGCAACCATAAAGTGATATTTAATAATGGAATTGTGAGCGGATAACAATTACAAAACAACCATATATTGATATCTCACAAAACAACCATAAGTTGATATTTTTGTGAATCGAGTATTTCAGCAAAACTACTGCAGTAAGAA”, the figures for the “relative integration efficiency (log2)” value in series [1] and in series [2] were -4.89 ± 0.52 and -3.41 ± 0.6, respectively.

Consider “AATGTTGTTGATGCAACCATAAAGTGATATTTAATAATTACAACCATATATTGATATCTCTTTATAATCAGCAACTTAACCACAAAAACAAAACAACCATAAGTTGATATTTTTGTGAATCGAGTATTTCAGCAAAACTACTGCAGTAAGAA”, for which the “relative integration efficiency (log2)” value in series [1] was -4.31 ± 0.99; in series [2] it was -2.04 ± 1.6.

For the sequence “AATGTTGTTGATGCAACCATAAAGTGATATTTAATAATTAGGGCGCCGACTACCAGGCCAACACCCCACCAACGCGCGGTCGCGAGACACCCCACCAACGCCTGGTCGCGGGGGTGTCCGATCTGATTTCAGCAAAACTACTGCAGTAAGAA”, the entries for the “relative integration efficiency (log2)” value in series [1] and in series [2] were -7.07 ± 0.66 and -4.57 ± 0.92, respectively.

For the sequence “AATGTTGTTGATGCAACCATAAAGTGATATTTAATAATTATCAACCATAAAGTGATATTTAACTTAACAACCATATATTGATATCTCACAAAACAACCATAAGTTGATATTTTTGTGAATCGAGTATTTCAGCAAAACTACTGCAGTAAGAA”, the “relative integration efficiency (log2)” value is -3.5 ± 0.95 in series [1] and -4.24 ± 1.2 in series [2].

Turning to “AATGTTGTTGATGCAACCATAAAGTGATATTTAATAATTATCAACCATATATTGATATCTCTTATAATCAGCAACTTAACCACAAAAACAAAACAACCATAAGTTGATATTTTTGTGAATCGAGTATTTCAGCAAAACTACTGCAGTAAGAA”, the “relative integration efficiency (log2)” value in series [1] is -4.57 ± 1.7; in series [2] it was -2.13 ± 1.5.

For the sequence “AATGTTGTTGATGCAACCATAAAGTGATATTTAATAATTATTCAACCATATATTGATATCTCACAAAACAACCATAAGTTGATATTTTTATAATCAGCAACTTAACCACAAAATGTGAATCGAGTATTTCAGCAAAACTACTGCAGTAAGAA”, the “relative integration efficiency (log2)” value in series [1] is -6.852 ± 0.014; in series [2], under -10.

“AATGTTGTTGATGCAACCATAAAGTGATATTTAATAATTATTCAACCATATATTGATATCTCTATAATCAGCAACTTAACCACAAAAACAAAACAACCATAAGTTGATATTTTTGTGAATCGAGTATTTCAGCAAAACTACTGCAGTAAGAA”: the “relative integration efficiency (log2)” value was -5.19 ± 1.2 in series [1] and -3.42 ± 0.56 in series [2].

Consider “AATGTTGTTGATGCAACCATAAAGTGATATTTAATAATTATTGCGCCGACTACCAGGCCAACACCCCACCAACGCGCGGTCGCGAGACACCCCACCAACGCCTGGTCGCGGGGGTGTCCGATCTGATTTCAGCAAAACTACTGCAGTAAGAA”, for which the entries for the “relative integration efficiency (log2)” value in series [1] and in series [2] were -6.73 ± 0.58 and -5.68 ± 3.3, respectively.

Turning to “AATGTTGTTGATGCAACCATAAAGTGATATTTAATAATTATTTACAACCATATATTGATATCTCACAAAACAACCATAAGTTGATATTTTTGTGAATCGAGTATTTCAGCAAAACTACTGCAGTAAGAAAGTTACTTCGTGGTATGGGAGGA”, the “relative integration efficiency (log2)” value was -5.81 ± 1.1 in series [1] and -1.76 ± 1 in series [2].

For “AATGTTGTTGATGCAACCATAAAGTGATATTTAATAATTATTTACAACCATATATTGATATCTCTAATCAGCAACTTAACCACAAAAACAAAACAACCATAAGTTGATATTTTTGTGAATCGAGTATTTCAGCAAAACTACTGCAGTAAGAA”, the “relative integration efficiency (log2)” value in series [1] was -4.75 ± 1.3; in series [2] it was -2.24 ± 2.1.

Take “AATGTTGTTGATGCAACCATAAAGTGATATTTAATAATTATTTATAACAACCATATATTGATATCTCTCAGCAACTTAACCACAAAAACAAAACAACCATAAGTTGATATTTTTGTGAATCGAGTATTTCAGCAAAACTACTGCAGTAAGAA”: the “relative integration efficiency (log2)” value in series [1] is -4.46 ± 0.052; in series [2], -2.66 ± 1.4.

On to “AATGTTGTTGATGCAACCATAAAGTGATATTTAATAATTATTTATAAGACTACCAGGCCAACACCCCACCAACGCGCGGTCGCGAGACACCCCACCAACGCCTGGTCGCGGGGGTGTCCGATCTGATTTCAGCAAAACTACTGCAGTAAGAA”, for which the “relative integration efficiency (log2)” value is -6.62 ± 1.2 in series [1] and -6.04 ± 3.5 in series [2].

For “AATGTTGTTGATGCAACCATAAAGTGATATTTAATAATTATTTATAATACTACCAGGCCAACACCCCACCAACGCGCGGTCGCGAGACACCCCACCAACGCCTGGTCGCGGGGGTGTCCGATCTGATTTCAGCAAAACTACTGCAGTAAGAA”, the “relative integration efficiency (log2)” value in series [1] was -6.5 ± 1.2; in series [2], -3.51 ± 1.3.

In the case of “AATGTTGTTGATGCAACCATAAAGTGATATTTAATAATTATTTATAATCAACCATATATTGATATCTCACAAAACAACCATAAGTTGATATTTTTGTGAATCGAGTATTTCAGCAAAACTACTGCAGTAAGAAAGTTACTTCGTGGTATGGG”, the “relative integration efficiency (log2)” value is -6.16 ± 1.6 in series [1] and -4.56 ± 2.6 in series [2].
